These results are taken from patent publication US20040023235A1 (WISTAR INSTITUTE OF ANATOMY AND BIOLOGY, published 2004).

This test addresses T1, endogenous 53Bp1 (human p53-binding protein) from U2OS nuclear extracts (human, UniProt Q12888 1-1972).
T1 construct: Endogenous protein in nuclear extracts
The test can be described thus: co-immunoprecipitation from U2OS nuclear extracts, western blot. The procedure:
Nuclear extracts from mock treated U20S cells or cells exposed to 1 or 8 Gy gamma irradiation were prepared as described by Waterman et al, 1998 Nature Genet., 19:175-178. Endogenous 53BP1, Mre11, or p95/NBS were immunoprecipitated by binding 1 μg/reaction of monoclonal anti-53BP1, or 1 μg/reaction purified Mre11 or p95/NBS antisera (Calbiochem) in 1× IP buffer [25 mM Hepes (pH 7.4)/100 mM NaCl/5 mM MgCl₂/100 mM EDTA/0.2 mg/ml BSA/0.1% Tween-20] to protein-G sepharose beads (Amersham) for 1 hour. After washing three times with 1× IP buffer, 100 μg nuclear extract was added and proteins allowed to bind for 1 hour at 4° C. The beads were washed and the proteins resolved on 6% SDS-PAGE, transferred to PVDF membrane and were visualized by western blot using the antibodies described in Part A above.
In general terms: In western blotting, separated proteins are transferred to a membrane and probed.

T1 sequence (Q12888 whole entry): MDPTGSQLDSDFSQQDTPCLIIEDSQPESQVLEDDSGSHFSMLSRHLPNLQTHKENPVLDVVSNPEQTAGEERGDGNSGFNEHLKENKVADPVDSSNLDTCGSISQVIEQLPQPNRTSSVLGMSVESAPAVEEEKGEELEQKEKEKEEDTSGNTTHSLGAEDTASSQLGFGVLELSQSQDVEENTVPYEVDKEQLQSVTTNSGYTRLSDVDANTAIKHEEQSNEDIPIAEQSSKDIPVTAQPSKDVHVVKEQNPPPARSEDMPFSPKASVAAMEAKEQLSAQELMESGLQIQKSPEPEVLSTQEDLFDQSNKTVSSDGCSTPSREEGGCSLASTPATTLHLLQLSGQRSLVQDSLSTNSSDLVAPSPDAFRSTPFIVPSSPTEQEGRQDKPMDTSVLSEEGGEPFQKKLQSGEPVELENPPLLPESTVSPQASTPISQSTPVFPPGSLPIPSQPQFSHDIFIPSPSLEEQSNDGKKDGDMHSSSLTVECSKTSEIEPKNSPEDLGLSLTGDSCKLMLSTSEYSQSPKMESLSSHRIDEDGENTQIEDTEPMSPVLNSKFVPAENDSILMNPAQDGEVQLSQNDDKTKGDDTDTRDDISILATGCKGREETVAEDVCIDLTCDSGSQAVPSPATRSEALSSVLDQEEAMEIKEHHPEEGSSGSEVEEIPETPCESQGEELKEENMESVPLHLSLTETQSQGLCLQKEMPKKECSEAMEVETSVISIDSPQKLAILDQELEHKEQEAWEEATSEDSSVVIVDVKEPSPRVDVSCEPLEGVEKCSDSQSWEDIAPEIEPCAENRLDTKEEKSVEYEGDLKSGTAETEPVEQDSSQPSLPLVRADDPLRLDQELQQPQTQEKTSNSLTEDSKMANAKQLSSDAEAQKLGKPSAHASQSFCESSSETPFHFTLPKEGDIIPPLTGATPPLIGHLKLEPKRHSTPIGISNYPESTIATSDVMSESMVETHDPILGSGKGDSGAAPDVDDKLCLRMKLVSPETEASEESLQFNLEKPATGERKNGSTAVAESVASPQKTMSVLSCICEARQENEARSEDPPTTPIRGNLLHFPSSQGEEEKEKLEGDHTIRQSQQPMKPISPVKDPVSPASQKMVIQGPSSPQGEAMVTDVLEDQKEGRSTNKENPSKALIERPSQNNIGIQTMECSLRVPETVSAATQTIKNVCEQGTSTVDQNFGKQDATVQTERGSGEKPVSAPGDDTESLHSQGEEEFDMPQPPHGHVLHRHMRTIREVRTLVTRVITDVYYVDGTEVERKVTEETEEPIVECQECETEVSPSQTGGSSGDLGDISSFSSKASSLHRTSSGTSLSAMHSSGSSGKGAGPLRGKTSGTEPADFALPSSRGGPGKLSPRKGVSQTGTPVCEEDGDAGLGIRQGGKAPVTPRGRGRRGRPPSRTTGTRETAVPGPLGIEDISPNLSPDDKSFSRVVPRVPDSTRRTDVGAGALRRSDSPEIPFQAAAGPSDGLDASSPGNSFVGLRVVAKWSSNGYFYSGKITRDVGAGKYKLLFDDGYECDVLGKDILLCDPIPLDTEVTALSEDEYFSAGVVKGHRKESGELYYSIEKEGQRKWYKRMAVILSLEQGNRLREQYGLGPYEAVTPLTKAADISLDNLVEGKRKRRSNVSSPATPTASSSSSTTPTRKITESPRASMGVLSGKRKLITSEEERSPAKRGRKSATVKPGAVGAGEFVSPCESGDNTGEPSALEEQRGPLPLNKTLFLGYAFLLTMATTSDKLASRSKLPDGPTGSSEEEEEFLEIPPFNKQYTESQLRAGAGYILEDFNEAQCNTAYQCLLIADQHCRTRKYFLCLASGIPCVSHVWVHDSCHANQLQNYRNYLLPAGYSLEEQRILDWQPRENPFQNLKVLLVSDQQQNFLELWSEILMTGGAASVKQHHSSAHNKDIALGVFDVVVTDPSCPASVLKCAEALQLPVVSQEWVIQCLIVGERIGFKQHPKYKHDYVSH

B1: Rad50 (other, UniProt Q92878 1-1312, looked up)
chain: MSRIEKMSILGVRSFGIEDKDKQIITFFSPLTILVGPNGAGKTTIIECLKYICTGDFPPGTKGNTFVHDPKVAQETDVRAQIRLQFRDVNGELIAVQRSMVCTQKSKKTEFKTLEGVITRTKHGEKVSLSSKCAEIDREMISSLGVSKAVLNNVIFCHQEDSNWPLSEGKALKQKFDEIFSATRYIKALETLRQVRQTQGQKVKEYQMELKYLKQYKEKACEIRDQITSKEAQLTSSKEIVKSYENELDPLKNRLKEIEHNLSKIMKLDNEIKALDSRKKQMEKDNSELEEKMEKVFQGTDEQLNDLYHNHQRTVREKERKLVDCHRELEKLNKESRLLNQEKSELLVEQGRLQLQADRHQEHIRARDSLIQSLATQLELDGFERGPFSERQIKNFHKLVRERQEGEAKTANQLMNDFAEKETLKQKQIDEIRDKKTGLGRIIELKSEILSKKQNELKNVKYELQQLEGSSDRILELDQELIKAERELSKAEKNSNVETLKMEVISLQNEKADLDRTLRKLDQEMEQLNHHTTTRTQMEMLTKDKADKDEQIRKIKSRHSDELTSLLGYFPNKKQLEDWLHSKSKEINQTRDRLAKLNKELASSEQNKNHINNELKRKEEQLSSYEDKLFDVCGSQDFESDLDRLKEEIEKSSKQRAMLAGATAVYSQFITQLTDENQSCCPVCQRVFQTEAELQEVISDLQSKLRLAPDKLKSTESELKKKEKRRDEMLGLVPMRQSIIDLKEKEIPELRNKLQNVNRDIQRLKNDIEEQETLLGTIMPEEESAKVCLTDVTIMERFQMELKDVERKIAQQAAKLQGIDLDRTVQQVNQEKQEKQHKLDTVSSKIELNRKLIQDQQEQIQHLKSTTNELKSEKLQISTNLQRRQQLEEQTVELSTEVQSLYREIKDAKEQVSPLETTLEKFQQEKEELINKKNTSNKIAQDKLNDIKEKVKNIHGYMKDIENYIQDGKDDYKKQKETELNKVIAQLSECEKHKEKINEDMRLMRQDIDTQKIQERWLQDNLTLRKRNEELKEVEEERKQHLKEMGQMQVLQMKSEHQKLEENIDNIKRNHNLALGRQKGYEEEIIHFKKELREPQFRDAEEKYREMMIVMRTTELVNKDLDIYYKTLDQAIMKFHSMKMEEINKIIRDLWRSTYRGQDIEYIEIRSDADENVSASDKRRNYNYRVVMLKGDTALDMRGRCSAGQKVLASLIIRLALAETFCLNCGIIALDEPTTNLDRENIESLAHALVEIIKSRSQQRNFQLLVITHDEDFVELLGRSEYVEKFYRIKKNIDQCSEIVKCSVSSLGFNVH
notes: Member of the Mre11/Rad50/NBS complex
In the case of B1, the binding result was “no binding”.

B2: Mre11 (other, UniProt P49959 2-708, looked up)
chain: STADALDDENTFKILVATDIHLGFMEKDAVRGNDTFVTLDEILRLAQENEVDFILLGGDLFHENKPSRKTLHTCLELLRKYCMGDRPVQFEILSDQSVNFGFSKFPWVNYQDGNLNISIPVFSIHGNHDDPTGADALCALDILSCAGFVNHFGRSMSVEKIDISPVLLQKGSTKIALYGLGSIPDERLYRMFVNKKVTMLRPKEDENSWFNLFVIHQNRSKHGSTNFIPEQFLDDFIDLVIWGHEHECKIAPTKNEQQLFYISQPGSSVVTSLSPGEAVKKHVGLLRIKGRKMNMHKIPLHTVRQFFMEDIVLANHPDIFNPDNPKVTQAIQSFCLEKIEEMLENAERERLGNSHQPEKPLVRLRVDYSGGFEPFSVLRFSQKFVDRVANPKDIIHFFRHREQKEKTGEEINFGKLITKPSEGTTLRVEDLVKQYFQTAEKNVQLSLLTERGMGEAVQEFVDKEEKDAIEELVKYQLEKTQRFLKERHIDALEDKIDEEVRRFRETRQKNTNEEDDEVREAMTRARALRSQSEESASAFSADDLMSIDLAEQMANDSDDSISAATNKGRGRGRGRRGGRGQNSASRGGSQRGRADTGLETSTRSRNSKTAVSASRNMSIIDAFKSTRQQPSRNVTTKNYSEVIEVDESDVEEDIFPTTSKTDQRWSSTSSSKIMSQSQVSKGVDFESSEDDDDDPFMNTSSLRRNRR
notes: as for B1
For the molecule B2, the binding result is “no binding”.
